# Measurements as given in the supplement of paper PMC10567573.
# B1: PLD5 (parent)
# chain: WIVDKQHVYIGSAGLDWQSLGQMK
# Variants of: B1
# Experiment: protein stability index of a GFP-peptide fusion (GPS, HEK-293T) (PSI 1-6); higher = more stable
# Settings: c terminus: a fixed tail appended
# 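Note: lentivirally expressed fusions sorted by FACS into six bins by GFP to DsRed ratio, PSI derived from sequencing read proportions per bin multiplied by bin number.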
row,Variant,protein stability index
1,WIVDKQHVYIGSAQLDWQSLGQMK [G14Q],1.64
2,WIVDKQHVYIGSACLDWQSLGQMK [G14C],2.19
3,WIVDKQHVYIGSAELDWQSLGQMK [G14E],1.54
4,WIVDKQHVYIGSAWLDWQSLGQMK [G14W],3.18
5,WIVDKQHVYIGSAHLDWQSLGQMK [G14H],2.29
6,WIVDKQHVYIGSARLDWQSLGQMK [G14R],2.29
7,WIVDKQHVYIGSALLDWQSLGQMK [G14L],1.64
8,WIVDKQHVYIGSAMLDWQSLGQMK [G14M],1.63
9,WIVDKQHVYIGSAFLDWQSLGQMK [G14F],2.02
10,WIVDKQHVYIGSANLDWQSLGQMK [G14N],2.15
11,WIVDKQHVYIGSAILDWQSLGQMK [G14I],2.97
12,WIVDKQHVYIGSAVLDWQSLGQMK [G14V],2.6
13,WIVDKQHVYIGSAYLDWQSLGQMK [G14Y],1.79
14,WIVDKQHVYIGSATLDWQSLGQMK [G14T],1.25
15,WIVDKQHVYIGSADLDWQSLGQMK [G14D],2.12
16,WIVDKQHVYIGSASLDWQSLGQMK [G14S],2.16
17,WIVDKQHVYIGSAKLDWQSLGQMK [G14K],2.85
18,WIVDKQHVYIGSAPLDWQSLGQMK [G14P],2.23
19,WIVDKQHVYIGSAALDWQSLGQMK [G14A],1.51
20,WIVDKQHVVIGSAGLDWQSLGQMK [Y9V],1.93
21,WIVDKQHVFIGSAGLDWQSLGQMK [Y9F],3.1
22,WIVDKQHVEIGSAGLDWQSLGQMK [Y9E],2.13
23,WIVDKQHVRIGSAGLDWQSLGQMK [Y9R],1.41
24,WIVDKQHVCIGSAGLDWQSLGQMK [Y9C],1.54

row,Variant,protein stability index
1,WIVDKQHVDIGSAGLDWQSLGQMK [Y9D],1.91
2,WIVDKQHVSIGSAGLDWQSLGQMK [Y9S],2.01
3,WIVDKQHVPIGSAGLDWQSLGQMK [Y9P],2.48
4,WIVDKQHVKIGSAGLDWQSLGQMK [Y9K],1.33
5,WIVDKQHVMIGSAGLDWQSLGQMK [Y9M],1.58
6,WIVDKQHVQIGSAGLDWQSLGQMK [Y9Q],2.14
7,WIVDKQHVNIGSAGLDWQSLGQMK [Y9N],1.81
8,WIVDKQHVIIGSAGLDWQSLGQMK [Y9I],1.45
9,WIVDKQHVTIGSAGLDWQSLGQMK [Y9T],2.1
10,WIVDKQHVGIGSAGLDWQSLGQMK [Y9G],1.96
11,WIVDKQHVLIGSAGLDWQSLGQMK [Y9L],1.64
12,WIVDKQHVAIGSAGLDWQSLGQMK [Y9A],2.33
13,WIVDKQHVWIGSAGLDWQSLGQMK [Y9W],1.75
14,WIVDKQHVHIGSAGLDWQSLGQMK [Y9H],1.75
15,WIVDKQHVYIGSAGADWQSLGQMK [L15A],1.8
16,WIVDKQHVYIGSAGIDWQSLGQMK [L15I],1.31
17,WIVDKQHVYIGSAGDDWQSLGQMK [L15D],1.92
18,WIVDKQHVYIGSAGMDWQSLGQMK [L15M],1.34
19,WIVDKQHVYIGSAGEDWQSLGQMK [L15E],2.13
20,WIVDKQHVYIGSAGFDWQSLGQMK [L15F],1.14
21,WIVDKQHVYIGSAGKDWQSLGQMK [L15K],2.02
22,WIVDKQHVYIGSAGHDWQSLGQMK [L15H],1.67
23,WIVDKQHVYIGSAGCDWQSLGQMK [L15C],1.47
24,WIVDKQHVYIGSAGGDWQSLGQMK [L15G],2.2

row,Variant,protein stability index
1,WIVDKQHVYIGSRGLDWQSLGQMK [A13R],3.3
2,WIVDKQHVYIGSCGLDWQSLGQMK [A13C],2.08
3,WIVDKQHVYIGSYGLDWQSLGQMK [A13Y],1.98
4,WIVDKQHVYIGSMGLDWQSLGQMK [A13M],1.9
5,WIVDKQHVYIGSLGLDWQSLGQMK [A13L],2.44
6,WIVDKQHVYIGSSGLDWQSLGQMK [A13S],2.14
7,WIVDKQHVYIGSGGLDWQSLGQMK [A13G],2.05
8,WIVDKQHVYIGSTGLDWQSLGQMK [A13T],2.02
9,WIVDKQHVYIGSFGLDWQSLGQMK [A13F],2.5
10,WIVDKQHVYIGSWGLDWQSLGQMK [A13W],1.56
11,WIVDKQHVYIGSIGLDWQSLGQMK [A13I],3.29
12,WIVDKQHVYIGSDGLDWQSLGQMK [A13D],1.33
13,WIVDKQHVYIGSQGLDWQSLGQMK [A13Q],1.95
14,WIVDKQHVYIGSPGLDWQSLGQMK [A13P],1.55
15,WIVDKQHVYIGSNGLDWQSLGQMK [A13N],2.11
16,WIVDKQHVYIGSHGLDWQSLGQMK [A13H],1.45
17,WIVDKQHVYIGSKGLDWQSLGQMK [A13K],1.96
18,WIVDKQHVYIGSEGLDWQSLGQMK [A13E],1.72
19,WIVDKQHVYIGSVGLDWQSLGQMK [A13V],3.68
20,WIVDKQHVYGGSAGLDWQSLGQMK [I10G],1.64
21,WIVDKQHVYLGSAGLDWQSLGQMK [I10L],2.41
22,WIVDKQHVYFGSAGLDWQSLGQMK [I10F],2.26
23,WIVDKQHVYPGSAGLDWQSLGQMK [I10P],1.79
24,WIVDKQHVYNGSAGLDWQSLGQMK [I10N],2.16

row,Variant,protein stability index
1,WIVDKQHVYMGSAGLDWQSLGQMK [I10M],2.11
2,WIVDKQHVYDGSAGLDWQSLGQMK [I10D],2.41
3,WIVDKQHVYCGSAGLDWQSLGQMK [I10C],1.64
4,WIVDKQHVYRGSAGLDWQSLGQMK [I10R],1.65
5,WIVDKQHVYTGSAGLDWQSLGQMK [I10T],1.81
6,WIVDKQHVYEGSAGLDWQSLGQMK [I10E],2.22
7,WIVDKQHVYVGSAGLDWQSLGQMK [I10V],1.92
8,WIVDKQHVYKGSAGLDWQSLGQMK [I10K],2.27
9,WIVDKQHVYSGSAGLDWQSLGQMK [I10S],1.73
10,WIVDKQHVYHGSAGLDWQSLGQMK [I10H],1.93
11,WIVDKQHVYQGSAGLDWQSLGQMK [I10Q],1.83
12,WIVDKQHVYWGSAGLDWQSLGQMK [I10W],1.96
13,WIVDKQHVYYGSAGLDWQSLGQMK [I10Y],1.73
14,WIVDKQHVYAGSAGLDWQSLGQMK [I10A],1.85
15,WIVDKVHVYIGSAGLDWQSLGQMK [Q6V],2.08
16,WIVDKEHVYIGSAGLDWQSLGQMK [Q6E],1.95
17,WIVDKRHVYIGSAGLDWQSLGQMK [Q6R],2.3
18,WIVDKTHVYIGSAGLDWQSLGQMK [Q6T],1.84
19,WIVDKYHVYIGSAGLDWQSLGQMK [Q6Y],1.41
20,WIVDKGHVYIGSAGLDWQSLGQMK [Q6G],3.38
21,WIVDKPHVYIGSAGLDWQSLGQMK [Q6P],1.5
22,WIVDKKHVYIGSAGLDWQSLGQMK [Q6K],1.66
